US12115264B2, “Sterilization and filtration of peptide compositions” (3-D Matrix, Ltd., priority 2014, dated 2024)
Where no end group is shown, it is not given here.

Tests used:
Type in all cases: physicochemical
[1] = Storage modulus recovery after injection through 30-gauge needle
Protocol: RADA16 (SEQ ID NO:1) was injected through 30-gauge needle so that applied shear stress reduced stiffness of the peptides. The measurements were started 1 minute after the injection.
KLD12 (SEQ ID NO:2) was injected through 30-gauge needle so that the applied shear stress reduced stiffness of the peptides. The measurements were started 1 minute after the injection.
IEIK13 (SEQ ID NO:3) was injected through 30-gauge needle so that the applied shear stress reduced stiffness of the peptides. The measurements were started 1 minute after the injection.
The percentages of recovery back to the original storage modulus at 1 min and 20 min after injection peptide compositions through a 30 gauge needle are listed in Table 2. The recovery rate of IEIK13 (specifically, of a […]; SEQ ID NO:3) was the fastest among the peptide solutions, showing 100% recovery to the original storage modulus in 20 min. […] In some non-limiting embodiments, it may take about 12 to 48 hours for full recovery to an original modulus after passage through a needle (e.g., injection).
Rheological measurements were performed for RADA16 (SEQ ID NO:1) and IEIK13 (SEQ ID NO:3) solutions after injecting them through 30 gauge needles. […] The results are shown in FIG. 6 for RADA16 (SEQ ID NO:1), FIG. 7 for KLD12 (SEQ ID NO:2), and FIG. 8 for IEIK13 (SEQ ID NO:3).

[2] = Shear flow test (rheometer DHR-1, 20 mm plates); conditions: for yield stress (shear flow test): shear rate 0.003 to 1000
Protocol: Shear flow tests were performed on peptide solutions using a rheometer (DHR-1, TA Instruments) with 20 mm plates. Results are shown in FIG. 9 for 2.5% RADA16 (SEQ ID NO:1) solutions and FIG. 10 for 1.5% IEIK13 (SEQ ID NO:3) solutions. […] That is, as shear rate increased, their viscosities were dramatically dropped. […] The yield stress was about 40 Pa for 2.5% RADA16 (SEQ ID NO:1) solution and about 60 Pa for 1.5% IEIK13 (SEQ ID NO:3) solution.

[3] = Time sweep tests (rheological strength) before and after autoclave treatment; conditions: time sweep test
Protocol: Rheological properties of certain peptide compositions were determined before and after autoclaving.

[4] = Apparent viscosity change after passage through membrane shear-thinning unit (container-inversion test)
Description: The top row includes pictures of 2.5% KLD12 (SEQ ID NO:2). The bottom row includes pictures of 1.5% IEIK13 (SEQ ID NO:3). The solutions in the most left column stay on the top of the vials. The solutions in the most right column (after applying shear stress) have low viscosity, so that most materials are located at the bottom of vials.
To examine the effect of pore size in the shear-thinning unit on viscosity change of viscous peptide solutions, 2.5% KLD12 (SEQ ID NO:2) and 1.5% IEIK13 (SEQ ID NO:3) solutions were passed through selected pore sizes, and their apparent viscosity changes were evaluated. 2.5% KLD12 (SEQ ID NO:2) solutions passed through the shear-thinning unit with the pore sizes of 41 μm, 20 μm, and 5 μm.

[5] = Rheological properties of peptide solutions at selected concentrations; conditions: for Loss Modulus (G″) / Storage Modulus (G′): at 1 Pa of oscillation stress; for Max. Viscosity (max η′): from viscosity plots at the range of measured stress
Protocol: Rheological properties were determined for a variety of peptide solutions. […] For example 2% KLD12 (SEQ ID NO:2), 2.5% KLD12 (SEQ ID NO:2), and 1.5% IEIK13 (SEQ ID NO:3) solutions have 2, 3.4, and 3.2 times higher maximum viscosities than 2.5% RADA16 (SEQ ID NO:1), respectively.

[6] = 2.5%, 1 min after injection through 30-gauge needle
[7] = 2.5%, 20 min after injection through 30-gauge needle
[8] = 1%, 1 min after injection through 30-gauge needle
[9] = 1%, 20 min after injection through 30-gauge needle

| Substance | Storage modulus [1, 6] | Storage modulus [1, 7] | Storage modulus ([1]; 2.5%, Before injection) | rheological strength after autoclaving versus non-autoclaved [3] | Yield Stress ([5]; Conc. 1%) | Loss Modulus (G″) ([5]; Conc. 1%) | Storage Modulus (G′) ([5]; Conc. 1%) | Max. Viscosity (max η′) ([5]; Conc. 1%) | Yield Stress ([5]; Conc. 1.5%) | Loss Modulus (G″) ([5]; Conc. 1.5%) | Storage Modulus (G′) ([5]; Conc. 1.5%) | Max. Viscosity (max η′) ([5]; Conc. 1.5%) | Loss Modulus (G″) ([5]; Conc. 2%) | Storage Modulus (G′) ([5]; Conc. 2%) | Yield Stress ([5]; Conc. 2.5%) | Loss Modulus (G″) ([5]; Conc. 2.5%) | Storage Modulus (G′) ([5]; Conc. 2.5%) | Max. Viscosity (max η′) ([5]; Conc. 2.5%) | Storage modulus [1, 8] | Storage modulus [1, 9] | other results |
| --- | --- | --- | --- | --- | --- | --- | --- | --- | --- | --- | --- | --- | --- | --- | --- | --- | --- | --- | --- | --- | --- |
| Ile-Glu-Ile-Lys-Ile-Glu-Ile-Lys-Ile-Glu-Ile-Lys-Ile [IEIK13] | 632 Pa | 2248 Pa | 2213 Pa | almost identical rheological strength | 39.8 Pa | 77 Pa | 719 Pa | 12.9 Pa · s | 50.1 Pa | 94 Pa | 1092 Pa | 18.0 Pa · s | 138 Pa | 1708 Pa | 100 Pa | 174 Pa | 2213 Pa | 40.2 Pa · s | – | – | flow behaviour with increasing shear rate ([2]; 1.5% solution): typical shear thinning properties; yield stress (shear flow test) ([2]; 1.5% solution): about 60 Pa; apparent viscosity change after shear-thinning unit ([4]; 1.5% solution, membrane with a pore size of 5 μm): reduced significantly; times higher maximum viscosity than 2.5% RADA16 ([5]; 1.5% solution): 3.2 times |
| Arg-Ala-Asp-Ala-Arg-Ala-Asp-Ala-Arg-Ala-Asp-Ala-Arg-Ala-Asp-Ala [RADA16] | 67 Pa | 196 Pa | 352 Pa | dramatic decrease of rheological strength | 15.9 Pa | 12 Pa | 74 Pa | 2.3 Pa · s | 20.0 Pa | 30 Pa | 158 Pa | 3.4 Pa · s | 39 Pa | 217 Pa | 50.1 Pa | 53 Pa | 352 Pa | 5.6 Pa · s | 6.8 Pa | 40 Pa | Storage modulus ([1]; 1%, Before injection): 74 Pa; flow behaviour with increasing shear rate ([2]; 2.5% solution): typical shear thinning properties; yield stress (shear flow test) ([2]; 2.5% solution): about 40 Pa; Yield Stress ([5]; Conc. 2%): 31.6 Pa; Max. Viscosity (max η′) ([5]; Conc. 2%): 4.0 Pa · s |
| KLDLKLDLKLDL [KLD12, self-assembling peptide with repeats of KLDL, tested as solutions of 1 to 2.5%] | 57 Pa | 196 Pa | 846 Pa | – | 25.1 Pa | 25 Pa | 140 Pa | 2.0 Pa · s | 39.8 Pa | 46 Pa | 292 Pa | 7.1 Pa · s | 63 Pa | 573 Pa | 100 Pa | 93 Pa | 846 Pa | 19.0 Pa · s | 0.68 Pa | 59 Pa | Storage modulus ([1]; 1%, Before injection): 140 Pa; apparent viscosity change after shear-thinning unit ([4]; 2.5% solution, pore size of 120 μm): remained too viscous to flow down; apparent viscosity change after shear-thinning unit ([4]; 2.5% solution, pore sizes of 41 μm, 20 μm, and 5 μm): decreased enough to flow down; times higher maximum viscosity than 2.5% RADA16 ([5]; 2% solution): 2 times; times higher maximum viscosity than 2.5% RADA16 ([5]; 2.5% solution): 3.4 times; Yield Stress ([5]; Conc. 2%): 79.4 Pa; Max. Viscosity (max η′) ([5]; Conc. 2%): 11.0 Pa · s |
